Key:
[1] = target: T1, silk fibroin, sericin-depleted, from degummed Bombyx mori silk (dissolved in 9.3 M LiBr, dialysed, then gelled or precipitated) (Bombyx mori), P05790; experiment: HPLC of 23RGD extracted from lyophilized silk precipitate, formulation BASE
[2] = target: T1, silk fibroin, sericin-depleted, from …; experiment: HPLC of 23RGD extracted from silk precipitate, formulation ECLO, against the calculated molar ratio
[3] = target: T1, silk fibroin, sericin-depleted, from …; experiment: HPLC of 23RGD extracted from silk precipitate, formulation printed as RMED, against the calculated molar ratio
[4] = target: T1, silk fibroin, sericin-depleted, from …; experiment: HPLC of 23RGD extracted from lyophilized silk precipitate, formulation AVHI
[5] = target: T1, silk fibroin, sericin-depleted, from …; experiment: HPLC of 23RGD extracted from silk precipitates; plateau over the formulations
[6] = target: T1, silk fibroin, sericin-depleted, from …; experiment: HPLC of 23RGD extracted from lyophilized silk precipitate, formulation AVLO
[7] = target: T1, silk fibroin, sericin-depleted, from …; experiment: HPLC of 23RGD extracted from lyophilized silk precipitate, formulation 0.6S 3R 10:1
[8] = target: T1, silk fibroin, sericin-depleted, from …; experiment: HPLC of 23RGD extracted from lyophilized silk precipitate, formulation printed as RLO
[9] = target: T1, silk fibroin, sericin-depleted, from …; experiment: HPLC of 23RGD extracted from silk precipitate, formulation SCLO, against the calculated molar ratio
[10] = target: T1, silk fibroin, sericin-depleted, from …; experiment: HPLC and dry mass of silk precipitates, over all formulations
[11] = target: T1, silk fibroin, sericin-depleted, from …; experiment: HPLC of 23RGD extracted from lyophilized silk precipitate, formulation printed as RMED
[12] = target: T1, silk fibroin, sericin-depleted, from …; experiment: HPLC of 23RGD extracted from the final rinsed 23RGD-enhanced silk gel
[13] = target: T1, silk fibroin, sericin-depleted, from …; experiment: HPLC of 23RGD extracted from lyophilized silk precipitate, formulation SCVLO
[14] = target: T1, silk fibroin, sericin-depleted, from …; experiment: HPLC of 23RGD extracted from lyophilized silk precipitate, formulation RHI
[15] = target: T1, silk fibroin, sericin-depleted, from …; experiment: HPLC of 23RGD extracted from silk precipitate, formulation BASE, against the calculated molar ratio
[16] = target: T1, silk fibroin, sericin-depleted, from …; experiment: HPLC of 23RGD extracted from silk precipitate, formulation AVLO, against the calculated molar ratio
[17] = target: T1, silk fibroin, sericin-depleted, from …; experiment: HPLC of 23RGD extracted from lyophilized silk precipitate, formulation SCLO

B1: 23RGD peptide (amphiphilic peptide: RGD motif, spacer region, leucine tail; 23 amino acids) (peptide)
peptide: GRGDIPASSKGGGGSRLLLLLLR
modifications: not checked
B1 was tested, and the 23RGD:silk ratio (bound) (mol 23RGD per mol silk) [1] was 8.7, the bound RGD, fold of the calculated (expected) amount [2] was 1.5 fold and the bound RGD, fold of the calculated (expected) amount [3] was 2 fold. The 23RGD:silk ratio (bound) (mol 23RGD per mol silk) [4] was 10.5, the apparent saturation, RGD molecules per molecule of silk (mol 23RGD per mol silk) [5] was 10 and the 23RGD:silk ratio (bound) (mol 23RGD per mol silk) [6] was 5.2. The 23RGD:silk ratio (bound) (mol 23RGD per mol silk) [7] was 10, the 23RGD:silk ratio (bound) (mol 23RGD per mol silk) [8] was 1.1 and the bound RGD, fold of the calculated (expected) amount [9] was 2 fold. The percent of 23RGD precipitated with silk [10] was 5 to 30%, the 23RGD:silk ratio (bound) (mol 23RGD per mol silk) [11] was 6.95 and the 23RGD:silk molar ratio (bound) (mol 23RGD per mol silk) [12] was 3.35. It also gave a 23RGD:silk ratio (bound) (mol 23RGD per mol silk) [13] of 11, a 23RGD:silk ratio (bound) (mol 23RGD per mol silk) [14] of 10.7 and a bound RGD, fold of the calculated (expected) amount [15] of 2 fold. It also gave a bound RGD, fold of the calculated (expected) amount [16] of 2 fold and a 23RGD:silk ratio (bound) (mol 23RGD per mol silk) [17] of 9.9.

Source: patent publication US20110008406A1
